This is an account of results in a protein production outcome set (Wang et al. 2014).

This data set is described as follows: label from the status in PepcDB records.
For “MPTIKDYYLPKRPTLLFSLHPEPTQAIINGTKILEYRRRFFARPFQAFVYTTGDNGGIQLFLRCDQGLQLVPEQLALVGALLQHDAPTTTAAYFEGAKAGLALPITAFTTLPNIPLAQLRRQFENFVTPRSYVFLDQPDRQAQLDWLLTQPCESLTILDWRKRYAALATLLQKLEHHHHHH”, the protein production entry was “not failed”. The result for “MDKQTSPQEEIPELAVAVPQDAAALARALDLEAQTVSTWLTQGLGIVARVGSQIVGLAHLVDDGGHADVTDLALTTPDDADVVAALIGGAEQIATELESRVLVVSGLKASPGPAYHYNSGWVRVLPTRVVVPTAEAMHAFGAALAAQLRAGDIVLASGDLGAGKTTLAQGIGRGLGVDGPVISPTFVLARRHVGSEGRPGLVHVDAYRLGSAAELIDLDLDETMDQAVTLIEWGAGIAEDLGGSHLDVDIRRSGDPADETRVVYLEGFGPRWQDVDLSLLSELPLDTISPDQTGDNN” reads “failed”; that for “MSHVSDYRPCFLIPCYNHGSTIADVVASLSSFDLPVLVVDDGSNEDTKQALSALSEQGLIKLISLSENQGKGGAVMAGLHQAHQLGFTHTIQIDADGQHDLEALPKLLSASETKPDNLISGQPIYDESVPKARLYGRYATHIWVWIETLSLSIKDSMCGFRAYPVAKTVAVLNKYNIGKRMDFDIEILVRMYWEGVDIDFVPTRVIYPEGGISHFDALWDNVKISWMHTRLFFGMLPRIPSLLARKRRHTDDSNAHWSKRKEQGTILGIKTLLAVYRLFGRKAFDLILKLVMRYYHFTGKSAREASEIYLQNLQRYAAQQNIALPKQLDSYHHLLSFGRTMLDKLAAWQGDFNVDNLTIHGQHHFEEMAQKKQGVLILGSHLGNIELCRALGRRHSHVKINALVFTQHAEQFNAVMKAVNPNSELNLIQVSSMGPDTAILLQQKIEQGEWVVIVGDRTSTSKENRVVWADFLGKPAPFPQGPFMLASVLKAPVYLLFGLRDDEANTPHFNVYFEHFSDQITLPRKERQQALEHVVQQYAHRLEHHTLQAPLQWYNFFNFWTLSNQPHDKQQ”, “failed”; that for “MTTVSPDDSSPSTLTSLTFDDLTPGQSASLSRTLTQADLDLFATVSGNIDPSHFADPPAGTTLFPKAIGHGMWSASLISGVLGTRLPGPGTVYLAQDLRFRAPVTLGDTITASVTVREKRTERKTVVFECLCTNQNGVTVVSGTAEVIAPATHASVAAQALPGLQMIRHDRQAALLARCAGLPALPTAVIHPCDGPALQGAVEAAQRGLIEPILVGPSLLIAATAKALGLDISAFRLVEAANGAAAAATGVALVRAGEARAVMKGALHTDELMAAVVKRDGGLRTAGRISHVFLMTVPTYPKPLLITDAVVNIAPSLEDKVHIVQNAIDLARILGVETPKVAILSAVETINPKISSTVDAAALCKMAQRGQIRGGLLDGPLAFDNAISAEAAKTKGIVSEVAGQADILLVPDLESGNMLAKQLSFLAHADAAGIVLGTSAPVMLTSRADNLAARLASCALAVLIDAASRPRSTVLAAE”, “failed”. For “MKTLFSIYLFLSLNPLFLEANEITWSKFLENFKNKNDDDKPKPLTIDKNNEKQQILDKNQQILKRALEKSLKFFFIFGYNYSQATFSTSNQTLTFVANSIGFNTATGLEHFLRNHPKVGFRIFSVYNYFHSVSLSQPQTLMVQNYGGALDFSWIFVDKNIYRFRSYLGIALEQGVLLVDTIKPGAITTIIPRTKKTFFQAPLRFGFIVDFIGYLSLQLGIEMPLVRNVFYTYNNHQERFKPRFNANLSLIVSF”, the protein production entry was “failed”. The result for “MSEPLLHLTERSLWDAARDRGTYEMATRGRTLQEEGFIHCSLRHQLPGVAALLYGSRAGSDELVVLVVDAERLAAPVRYEAVGPGGEEFPHVYGPIPVSAVVDVEVWTGGEAASALEHHHHHH” reads “not failed”; that for “MSLKKINTVLAAAFILFILWFGAEFILSPETTAPGFGLPSWPSGDGDGFLIIKGIRDVVLALVLGILLVTGHRRALGWALLVEALAAYGDMTAVLAHHGSVATALGVHCLTATLMVVNGLLIMRETRKVAAAPATPAPQPA”, “failed”; that for “MKNLVVVDHPLIKHKLTIMRDKNTGPKEFRELLREITLLLAYEATRHLKCEEVEVETPITKTIGYRINDKDIVVVPILRAGLVMADGILELLPNASVGHIGIYRDPETLQAVEYYAKLPPLNDDKEVFLLDPMLATGVSSIKAIEILKENGAKKITLVALIAAPEGVEAVEKKYEDVKIYVAALDERLNDHGYIIPGLGDAGDRLFRTK”, “not failed”. “MTTLGIVSDTHGYFHPNLADDLSGVDRILHAGDVGDPAILDGLEAVAPVTAVWGNIDDASLRRRLAEHERFTVAGLDVWMTHIAGRPGRWQDGMGTKLEATPPDVLVCGHSHILQVERVAALDDMLYVNPGAAGKQGFHQTKTCLRLAVEDGRATEAAVVHLDPDASPAQAPDP”: the protein production entry is “failed”. As to “MLALKKKSVKAAFEALIPKIMEEGTEMVSEDGQKCKELMNTIIEITDPSDKSISEKYPLGERAVESYTEQLLHGSAATFVYDYHERIFEYPSDKKELKNDQIDYIVNKLKEQINSRRAIAITWNPYIDQTVKDVPCLQIVQFLIRDNKLYQTVLFRSNDAFLAFHANAIGLIALGEMVAEKLEIELAKYTHHSVSMHVYSERDIDALKKF”, the protein production entry is recorded as “not failed”. As for “MASKITQPDKYSGFLNNYSDLKETTSATGKPVLRWVDPSFDQSKYDSIVWNPITYYPVPKPSTQVGQKVLDKILNYTNTEMKEAIAQRKPLVTTAGPRSLIFRGAITGVDTSKEGLQFYEVVPVALVVAGTQMATGHRTMDTRLYFEGELIDAATNKPVIKVVRQGEGKDLNNESTPMAFENIKQVIDDMATDATMFDVN”, the protein production entry was “failed”. “MSDLSQLIVAPILLPLITAAIMLLLGEKHRHIKARLNLLSTFSGLAIAACLLLWVRTQGQAASIGVYLPGNWPAPFGIVLVVDHLSALLLTLTGVIGFSALLFARARWDGAGASFHALFQIQLMGLYGAFLTADLFNLFVFFEVLLAASYGLLLHGSGRARVRAGLHYIAINLFASSLFLIGAAMLYGVTGTLNMADLALKIPLVPEADRGLLHAGAAILAMAFLVKAGIWPLNFWLVPAYASASAPVAALFAIMTKVGLYAVLRLWTLLFSGQAGASAHFGGEWLVYGGLVTLAVAAVSILAAQRLERMAALSILVSAGTLLGAVGFAQAALTGAALFYLVNSTLALCALFLLAELVERSRSANEAPLDEEEDAMPPPLESLHPPKGINLDDEQQVVIGQIIPWTMAFLGLSFIACALLIIGMPPLSGFVGKLNLISALFNPLGLGVPAEQPLSAAGWGLVALLILSGLASLIAFGRVGIQRFWKPEERPSPVLRRYECLPIVILLGLCLILSFKAEPLLRYTQDTAASLQAPDAYIKAVMAAQPIPGPTSRDVQVQP”: the protein production entry is “failed”. As for “MLALKSSELEGIATSLTAVAGALHESNTDRLQSWQQLETMTSASSLIQGFIKLVDYNRPTVNIVEQMHKTASTLFNTADFLRTLEGYVDVLEKQADKSITLTVMLRYIASLSSLLDLMCAREINALCTAITPEPLKHLGDFGTLPASAIHEFHLVNAPPEIRALAEAHPDMQILEAGDGSLVASFGDIDRATTVTTIVAGVGSSNPEGWNTYVDRARTVSASTGSATVLWLGYQAPASIPAAVSGAAANRAAADLQRFQAALQSRNPHQRKVVMGYSYGSTVVGKAASSGELSADALVLVGSPGAGVSHSSQLGAPVYAVTGSADPIGFAGTQYDGIHGTDPTAALFGATVWDSPSTHSGYWNDQEFLGNVAEVVRGK”, the protein production entry is “failed”. The result for “MGDSHDVCRQLLPRAIFGINGKVENGVRQHPVTGSIIFALGNKIGIADYKKNTQEFVAGHTNTISCLDLSKSGKYMASGQINHMGFRGYVIIWNYDQRKEIARHDLHKVSVQAICFTAQDRCVVSIGGVDDGSVIVFDMEAFSPICQTPASRAISGNALTVRPLHNNPYFFVTAGDRHLRLWSILREEKKLYVQDVLMASKTRVFYCARINKTDEFAYLGTGTGDIVKIVLNCCDRDHVSKQGSTSCILGAFGTHNPRKPTGRDCNRYVNGVRALYVLEGGRLLIGAGNGDIELVEERTDVPLINFRDYPGPTWPYLRTLKKTHVSGRISSFVRSKTDMFYICTDTNEIYGLNIKTWVLKLLRTCHTKSVYCITFPKNYSGVFATSGKECIRIWSSGRKQELLRIMVYNFNCACVRFTHDGTSIVSVWNDGIIRAFTPITGRLIYAIPNAHNKGCSALAVASSGRLIVTGGIEGQVRVWKIDPYRQDLVGVLKDHSGPITSLDINYLDTEVISACTDGSCVIWDIKRMTRKQVVTANTQFMSASYFPTGVQVITCGSDGRIIYWMVYNGALIRELTASKKSSVNCLAINETGDYFITVGSDLQVKLWDYNSGAVVGIGSEHASSVISCAYSPCMTMFVTGSTDGSLIIWDVPRDFWGRPNPPDVTKYSLPKTSSKTRMSDVPSRVNSGTNLKTTKGENIDGLLKATPKDDLCCVECPPCAKKDTKGVDPYAECGIVPDVRKC” reads “failed”; that for “MTAIAPVITIDGPSGAGKGTLCKAMAEALQWHLLDSGAIYRVLALAALHHHVDVASEDALVPLASHLDVRFVSTNGNLEVILEGEDVSGEIRTQEVANAASQVAAFPRVREALLRRQRAFRELPGLIADGRDMGTVVFPDAPVKIFLDASSEERAHRRMLQLQEKGFSVNFERLLAEIKERDDRDRNRAVAPLVPAADALVLDSTTLSIEQVIEKALQYARQKLALA”, “failed”. As to “VPKIVDHDERRRALADAVLALIAREGISAVTTRAVAEESGWSTGVLNHYFGSRHELLLAALRRAGDIQGDRYRTILDEEGAGPIEKLRNITASILPLDERRLAMTRVFLFFYAEGAAEETARGEIAAFLARWRGVVRESVVAAQREGTVSTDLDADAVTVALVALTDGLALQAILDPVVMKAISAEDAAARCVDAAVRRTTEEAGAVGR”, the protein production entry was “not failed”.

In the case of “MSVIKIEKALKLDKVIFVDVRTEGEYEEDHILNAINMPLFKNNEHNEVGTIYKMQGKHEAIQKGFDYVSYKLKDIYLQAAELALNYDNIVIYCARGGMRSGSIVNLLSSLGVNVYQLEGGYKAYRNFVLEY”, the protein production result is reported as “not failed”. With “MSSSEIQTKNSEVQVKEMVAHKWDLASETFDTHAGHGIQTQKERDAWKRAFLKVFPGKSLKILDVGCGTGELSLLFAEMGHEVAGIDISGQMLKIAKAKAEALGADITFREGDAENPPFDTSSYDIVFSRHLLWTLPNPKVAVENWNRILRKNGKVVIVDGVWDSGTLGSRARKNAGALLTLLLERKDPRKGHSDYSDELKAQLPHFGGAPLEKVNEYLSNSGFGNIQIFDLKEVRDAQKEKMPLGERVVRSYQYYLICGRK” the entry was “failed”; with “MRNLRKDIVSRSSVGSIQIHGAKTHNLRDVTVCIPKHALVGVAGVSGSGKTSLVSTLAVGAQQAVSSLFPAFVQARLNTLEPGLVDGLQGLTFTAIVGQKKFSRNARSSVSTASGIAPYLRLLFSRSGSPSAGYSPSYSPNDPRGMCMDCSGLGYVDDIDLQELIAPDRSLNEGAVRFPSFEPGTYRWKRLVCSGLFDPDVPWKELPEASRKLLLHGQGVRLERPLTGYPKHGIFDGIIPRLKASYLEKANAKTTEKEDAALRRIVKRVVCPHCHGQRINEAARASRIEGLNIAEASHLSIDECIAFIKTITDEITEAPRQAVLARLNNMRDIGLGYLSLDRPTDTLSGGEAQRLRLVSLLDAPITDATFVMDEPSSGLHPADIERLLRSLRKLRDSGNTVIIVEHNLQVLAACDHVVELGPGAGDDGGRVLFEGSPRSLTRSDTPTGKALRAGIQLNRRSRPATDVIEVTHARCNNLGDVSVSFPVGALTVVSGVAGSGKSSLASALAQQHPEVTIIDQLPLAASSRSSILTALGLESPIREAFSKISGLTTSWFSANEKGACPLCKGRGTTHVDMAFMDDVQTPCERCGGRKFNETTMAVRLPMGSLNPTIADVLDSGLNQVSELYATQDDVLTVISLLQQVGLGYLTLGRTLNTLSGGELQRIKLVQFLKEHREEQESVLVLDEITTGLHPKDVEQLIQFLRRLSERGATAIAIDHNPGLISQADYNIDLGPGAEAAGGTVVFSGTAQGLADCPESTTGKWLHKLNCSSSGVEQVP”, “failed”.
